The source of these data is paper PMC5352143.

Several values for one entry are separate records, joined by “and”; a condition that tells them apart may be missing. Equal entries are not always repeated. Where two headings read alike, the source gives them in different places.

Assay [1] deals with transferrin (Homo sapiens) (UniProt P02787). The conditions noted are these: cited from earlier work.
In assay [2] the target is MBP-LbpB (lactoferrin binding protein B, N. meningitidis MC58, without amino acids 1-15) (Neisseria meningitidis strain MC58). The experiment in a line: cross-linking; XL-MS: LbpB (MBP fusion or TEV-cleaved) and hLf equimolar in 50 mM Tris-HCl, 50 mM NaCl, pH 7.4, 4 h RT, DSS 30 min, bands cut from SDS-PAGE, LC-MS/MS.
The target in assay [3] is LbpB (N. meningitidis MC58, without amino acids 1-15) after TEV cleavage of MBP-LbpB (Neisseria meningitidis strain MC58). The description is as above.
The target in assay [4] is MBP-LbpB (lactoferrin binding protein B, N. meningitidis MC58, without amino acids 1-15) (Neisseria meningitidis strain MC58). The assay is described as above. This is another data set of the same source.
Assay [5] has as its target intact LbpB with N-terminal biotin acceptor peptide, fused to MBP (BLI construct) (Neisseria meningitidis strain MC58). The experiment in a line: BLI; Octet RED 96; biotinylated MBP-LbpB constructs loaded from crude E. coli extracts on streptavidin sensors; holo-hLf 10-800 nM in 1 X PBS pH 7.4, 0.002% Tween-20, 0.1 mg/mL BSA; steady-state fit, apparent KD.
Assay [6] deals with LbpB with the anionic loops removed (LbpB-lgsm), N-terminal biotin acceptor peptide, fused to MBP (BLI construct) (Neisseria meningitidis strain MC58). The assay is described as above.
The target of assay [7] is LbpB N-terminal lobe with N-terminal biotin acceptor peptide, fused to MBP (BLI construct) (Neisseria meningitidis strain MC58). Described as above.

Chain of transferrin (Homo sapiens) (P02787 20-698): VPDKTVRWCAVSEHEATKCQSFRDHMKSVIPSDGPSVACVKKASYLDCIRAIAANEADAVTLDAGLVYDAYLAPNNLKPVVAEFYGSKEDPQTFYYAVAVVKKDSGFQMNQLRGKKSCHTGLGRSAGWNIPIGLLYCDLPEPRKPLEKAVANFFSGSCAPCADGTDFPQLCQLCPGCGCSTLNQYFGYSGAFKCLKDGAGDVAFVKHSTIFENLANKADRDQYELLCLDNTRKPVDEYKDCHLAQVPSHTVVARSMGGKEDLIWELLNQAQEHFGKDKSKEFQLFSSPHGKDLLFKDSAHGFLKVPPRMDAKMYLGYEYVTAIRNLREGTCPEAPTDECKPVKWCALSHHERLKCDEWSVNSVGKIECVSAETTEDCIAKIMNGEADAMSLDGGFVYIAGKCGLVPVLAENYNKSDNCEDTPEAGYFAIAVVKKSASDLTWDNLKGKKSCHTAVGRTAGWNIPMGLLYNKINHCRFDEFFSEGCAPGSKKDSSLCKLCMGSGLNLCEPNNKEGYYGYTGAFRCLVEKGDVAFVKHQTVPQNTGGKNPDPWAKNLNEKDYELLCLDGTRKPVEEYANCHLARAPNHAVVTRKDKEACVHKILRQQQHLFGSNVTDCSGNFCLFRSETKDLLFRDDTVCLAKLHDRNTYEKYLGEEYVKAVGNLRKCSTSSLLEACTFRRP

TbpB (from UniProt Q09057): the Kd in assay [1] was 50 nM.
As to “holo human lactoferrin (iron-loaded hLf) (ligand)”, the stoichiometry N in assay [2] was 1 hLf:LbpB; in assay [3] it was 1 hLf:LbpB and 2 hLf:LbpB; in assay [4] it was 2 hLf:LbpB. In addition, the values for the Kd in assay [5], in assay [6] and in assay [7] were 72.8 nM, 140 nM and 126 nM, respectively.

Usually stoichiometry N stands for the number of molecules, sites or subunits per partner or assembly.
